The values below come from article PMC2837404, “The Human Polyoma JC Virus Agnoprotein Acts as a Viroporin” (PLoS Pathogens, 2010).

The series concerns the molecule itself. Description: cross-linking; SVG-A cells infected with JCV for 1 week, reacted as whole cells with 0.5, 1, 2 or 5 mM DSS (or DMSO) for 2 h at 4°C in DPBS (+), quenched with 50 mM Tris pH 7.5, lysed in 1% Triton X-100; SDS-PAGE and immunoblot with anti-agnoprotein antibody.

“And” between values parts separate entries of the source, which are not always exact repeats. Equal entries are not always repeated.

B1: JCV agnoprotein expressed in JCV-infected SVG-A cells (natural protein)
chain: MVLRQLSRKASVKVSKTWSGTKKRAQRILIFLLEFLLDFCTGEDSVDGKKRQRHSGLTEQTYSALPEPKAT
notes: JC virus (JCV) agnoprotein made from the viral genome in infected cells; monomer about 8 kDa; The virus was prepared from JCI cells or JC virus-infected SVG-A cells; source: SVG-A cells infected with JCV for 1 week
On to B1, for which the stoichiometry N (in general, a count of units in the complex or per binding partner) was 2 and 3 and 4 and 5.
